Target: integrin αIIb cytoplasmic tail peptide (starting from W988)
Assay: ITC

B1: skelemin tandem IgC2 domains 4 and 5 with the interconnecting linker, C1354S (domain or fragment)
chain: DEEEMKRLLALSQEHKFPTVPTKSELAVEILEKGQVRFWMQAEKLSSNAKVSYIFNEKEIFEGPKYKMHIDRNTGIIEMFMEKLQDEDEGTYTFQIQDGKATGHSTLVLIGDVYKKLQKEAEFQRQEWIRKQGPHFAEYLSWEVTGESNVLLKCKVANIKKETHIVWYKDEREISVDEKHDFKDGICTLLITEFSKKDAGFYEVILKDDRGKDKSRLKLVD
modifications: uniformly 15N or 15N/13C labelled for NMR
Kd: 14.2 ± 4.3 µM
